Values of other authors as cited in PMC11634773 (Nature, 2024).

Conditions: humans, basal insulin

For insulin glargine, the “c.v. for traditional needle-based subcutaneous pen injection” value is given as 33%.
